Legend:
HeLa Kyoto [1] = assay: thermal stability score vs G1/S (z-score of summed log2 fold changes over temperatures); higher = more thermally stable than in G1/S
HeLa Kyoto [2] = assay: solubility in G1/S (NP-40 vs SDS abundance) (log2 ratio); higher = more soluble; details: cell cycle stage: G1/S
HeLa Kyoto [3] = assay: solubility change mitosis vs G1/S (difference of NP-40 vs SDS log2 ratios) (log2 ratio difference); higher = more soluble in mitosis
HeLa Kyoto [4] = assay: melting temperature (median over replicates), in situ; higher = more thermally stable
[5] = cell cycle stage: early G1 (4.5 h after nocodazole release)
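For melting temperature (median over replicates), in situ in this document: HeLa Kyoto cells synchronized by double thymidine or nocodazole block, proteins quantified by TMT10plex mass spectrometry, three independent biological replicates.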
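For solubility change mitosis vs G1/S (difference of NP-40 vs SDS log2 ratios) in this document: synchronized HeLa Kyoto cells (double thymidine block for G1/S, nocodazole release for mitosis), protein amounts in NP-40 versus SDS lysates quantified by mass spectrometry, three biological replicates.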
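For solubility in G1/S (NP-40 vs SDS abundance) in this document: HeLa Kyoto cells arrested at G1/S by double thymidine block, proteins quantified by TMT10plex mass spectrometry in mild NP-40 versus SDS extracts, three biological replicates.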
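For thermal stability score vs G1/S (z-score of summed log2 fold changes over temperatures) in this document: synchronized HeLa Kyoto cells, proteins quantified by TMT10plex mass spectrometry, three biological replicates, mitosis taken 0.5 h after nocodazole release, G1/S directly after double thymidine block.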

Chain of ZNF593 (chain, as listed by the source): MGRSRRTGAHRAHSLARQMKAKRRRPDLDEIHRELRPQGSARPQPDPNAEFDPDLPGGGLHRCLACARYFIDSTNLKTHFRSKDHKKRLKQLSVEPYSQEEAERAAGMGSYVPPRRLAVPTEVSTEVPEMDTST
Chain of NFYA (chain, as listed by the source): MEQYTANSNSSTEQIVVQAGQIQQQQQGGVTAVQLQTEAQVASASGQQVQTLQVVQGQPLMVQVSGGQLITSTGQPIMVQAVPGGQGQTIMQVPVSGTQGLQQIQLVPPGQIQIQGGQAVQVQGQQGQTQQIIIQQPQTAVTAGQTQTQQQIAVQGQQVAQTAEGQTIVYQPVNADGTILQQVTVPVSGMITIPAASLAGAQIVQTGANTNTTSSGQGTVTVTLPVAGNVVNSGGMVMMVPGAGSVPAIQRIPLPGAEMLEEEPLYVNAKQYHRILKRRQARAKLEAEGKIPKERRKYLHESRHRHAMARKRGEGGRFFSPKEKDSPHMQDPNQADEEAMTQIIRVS
Chain of WNK2 (chain, as listed by the source): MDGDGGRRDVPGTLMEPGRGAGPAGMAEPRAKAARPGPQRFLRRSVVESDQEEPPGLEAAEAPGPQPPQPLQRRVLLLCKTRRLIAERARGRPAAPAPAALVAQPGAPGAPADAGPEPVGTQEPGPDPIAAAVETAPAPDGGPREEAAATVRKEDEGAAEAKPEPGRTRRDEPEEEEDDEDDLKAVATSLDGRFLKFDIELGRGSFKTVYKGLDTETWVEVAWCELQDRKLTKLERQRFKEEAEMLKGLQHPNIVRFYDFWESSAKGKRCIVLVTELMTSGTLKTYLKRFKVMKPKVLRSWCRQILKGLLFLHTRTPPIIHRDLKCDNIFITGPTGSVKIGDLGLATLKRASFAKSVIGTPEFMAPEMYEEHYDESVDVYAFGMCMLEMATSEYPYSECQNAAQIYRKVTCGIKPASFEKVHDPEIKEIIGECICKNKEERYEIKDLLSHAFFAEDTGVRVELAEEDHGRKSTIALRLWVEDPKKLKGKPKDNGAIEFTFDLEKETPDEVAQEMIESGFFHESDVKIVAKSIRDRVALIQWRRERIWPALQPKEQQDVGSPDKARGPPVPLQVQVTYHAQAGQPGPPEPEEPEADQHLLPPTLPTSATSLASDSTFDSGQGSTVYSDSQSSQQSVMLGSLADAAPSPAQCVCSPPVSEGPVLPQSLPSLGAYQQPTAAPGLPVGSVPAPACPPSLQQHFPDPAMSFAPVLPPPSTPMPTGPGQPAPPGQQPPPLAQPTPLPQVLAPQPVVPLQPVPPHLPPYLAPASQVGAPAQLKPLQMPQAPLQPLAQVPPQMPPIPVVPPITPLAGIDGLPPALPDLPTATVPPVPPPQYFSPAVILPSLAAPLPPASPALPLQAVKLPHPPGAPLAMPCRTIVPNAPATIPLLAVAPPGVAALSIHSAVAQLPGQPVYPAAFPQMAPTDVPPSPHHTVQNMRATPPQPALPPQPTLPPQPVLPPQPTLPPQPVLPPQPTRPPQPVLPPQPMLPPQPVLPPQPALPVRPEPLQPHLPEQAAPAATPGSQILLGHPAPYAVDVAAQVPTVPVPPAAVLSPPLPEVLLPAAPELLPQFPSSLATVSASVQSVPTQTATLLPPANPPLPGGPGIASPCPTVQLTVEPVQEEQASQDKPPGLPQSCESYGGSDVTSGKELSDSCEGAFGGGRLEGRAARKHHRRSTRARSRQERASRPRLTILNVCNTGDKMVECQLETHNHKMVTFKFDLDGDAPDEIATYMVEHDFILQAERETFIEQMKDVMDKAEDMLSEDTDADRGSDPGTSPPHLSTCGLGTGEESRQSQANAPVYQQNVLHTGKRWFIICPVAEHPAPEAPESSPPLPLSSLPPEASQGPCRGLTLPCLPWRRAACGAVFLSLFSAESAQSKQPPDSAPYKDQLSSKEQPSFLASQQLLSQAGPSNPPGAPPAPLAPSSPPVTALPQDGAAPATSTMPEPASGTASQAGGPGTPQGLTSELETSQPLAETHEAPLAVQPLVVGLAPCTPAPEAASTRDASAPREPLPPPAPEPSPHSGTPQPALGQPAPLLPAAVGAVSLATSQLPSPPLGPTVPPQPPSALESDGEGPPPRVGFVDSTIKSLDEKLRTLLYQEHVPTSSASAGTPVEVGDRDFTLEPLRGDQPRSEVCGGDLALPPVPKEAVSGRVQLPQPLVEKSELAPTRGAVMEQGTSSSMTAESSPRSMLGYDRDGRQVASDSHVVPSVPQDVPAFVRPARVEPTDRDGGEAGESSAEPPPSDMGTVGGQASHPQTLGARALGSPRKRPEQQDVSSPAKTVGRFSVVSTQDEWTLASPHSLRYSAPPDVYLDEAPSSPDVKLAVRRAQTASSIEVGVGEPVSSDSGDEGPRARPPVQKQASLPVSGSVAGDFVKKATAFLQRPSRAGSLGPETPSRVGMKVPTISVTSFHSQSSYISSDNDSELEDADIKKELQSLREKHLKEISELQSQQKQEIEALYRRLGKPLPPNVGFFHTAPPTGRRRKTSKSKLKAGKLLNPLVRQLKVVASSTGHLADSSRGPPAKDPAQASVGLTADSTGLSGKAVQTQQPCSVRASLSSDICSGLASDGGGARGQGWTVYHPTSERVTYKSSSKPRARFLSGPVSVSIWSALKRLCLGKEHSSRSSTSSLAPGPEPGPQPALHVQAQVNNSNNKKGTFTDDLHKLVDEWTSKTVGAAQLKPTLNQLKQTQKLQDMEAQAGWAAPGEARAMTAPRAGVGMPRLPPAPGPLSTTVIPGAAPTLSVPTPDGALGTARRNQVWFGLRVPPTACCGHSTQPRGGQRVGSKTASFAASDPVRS
Chain of TGOLN2 (chain, as listed by the source): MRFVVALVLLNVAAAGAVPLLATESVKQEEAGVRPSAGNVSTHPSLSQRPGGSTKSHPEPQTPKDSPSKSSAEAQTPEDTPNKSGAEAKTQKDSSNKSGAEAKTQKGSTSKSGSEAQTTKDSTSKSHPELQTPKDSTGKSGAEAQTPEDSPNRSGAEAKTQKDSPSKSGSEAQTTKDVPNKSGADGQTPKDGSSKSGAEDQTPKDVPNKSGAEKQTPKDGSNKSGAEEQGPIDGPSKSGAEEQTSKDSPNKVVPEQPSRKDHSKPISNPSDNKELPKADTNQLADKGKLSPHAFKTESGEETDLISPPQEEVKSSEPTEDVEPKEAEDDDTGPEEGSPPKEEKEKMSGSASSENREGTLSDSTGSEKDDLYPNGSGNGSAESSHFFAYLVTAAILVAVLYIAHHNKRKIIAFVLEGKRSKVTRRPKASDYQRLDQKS
Chain of UNC13B (chain, as listed by the source): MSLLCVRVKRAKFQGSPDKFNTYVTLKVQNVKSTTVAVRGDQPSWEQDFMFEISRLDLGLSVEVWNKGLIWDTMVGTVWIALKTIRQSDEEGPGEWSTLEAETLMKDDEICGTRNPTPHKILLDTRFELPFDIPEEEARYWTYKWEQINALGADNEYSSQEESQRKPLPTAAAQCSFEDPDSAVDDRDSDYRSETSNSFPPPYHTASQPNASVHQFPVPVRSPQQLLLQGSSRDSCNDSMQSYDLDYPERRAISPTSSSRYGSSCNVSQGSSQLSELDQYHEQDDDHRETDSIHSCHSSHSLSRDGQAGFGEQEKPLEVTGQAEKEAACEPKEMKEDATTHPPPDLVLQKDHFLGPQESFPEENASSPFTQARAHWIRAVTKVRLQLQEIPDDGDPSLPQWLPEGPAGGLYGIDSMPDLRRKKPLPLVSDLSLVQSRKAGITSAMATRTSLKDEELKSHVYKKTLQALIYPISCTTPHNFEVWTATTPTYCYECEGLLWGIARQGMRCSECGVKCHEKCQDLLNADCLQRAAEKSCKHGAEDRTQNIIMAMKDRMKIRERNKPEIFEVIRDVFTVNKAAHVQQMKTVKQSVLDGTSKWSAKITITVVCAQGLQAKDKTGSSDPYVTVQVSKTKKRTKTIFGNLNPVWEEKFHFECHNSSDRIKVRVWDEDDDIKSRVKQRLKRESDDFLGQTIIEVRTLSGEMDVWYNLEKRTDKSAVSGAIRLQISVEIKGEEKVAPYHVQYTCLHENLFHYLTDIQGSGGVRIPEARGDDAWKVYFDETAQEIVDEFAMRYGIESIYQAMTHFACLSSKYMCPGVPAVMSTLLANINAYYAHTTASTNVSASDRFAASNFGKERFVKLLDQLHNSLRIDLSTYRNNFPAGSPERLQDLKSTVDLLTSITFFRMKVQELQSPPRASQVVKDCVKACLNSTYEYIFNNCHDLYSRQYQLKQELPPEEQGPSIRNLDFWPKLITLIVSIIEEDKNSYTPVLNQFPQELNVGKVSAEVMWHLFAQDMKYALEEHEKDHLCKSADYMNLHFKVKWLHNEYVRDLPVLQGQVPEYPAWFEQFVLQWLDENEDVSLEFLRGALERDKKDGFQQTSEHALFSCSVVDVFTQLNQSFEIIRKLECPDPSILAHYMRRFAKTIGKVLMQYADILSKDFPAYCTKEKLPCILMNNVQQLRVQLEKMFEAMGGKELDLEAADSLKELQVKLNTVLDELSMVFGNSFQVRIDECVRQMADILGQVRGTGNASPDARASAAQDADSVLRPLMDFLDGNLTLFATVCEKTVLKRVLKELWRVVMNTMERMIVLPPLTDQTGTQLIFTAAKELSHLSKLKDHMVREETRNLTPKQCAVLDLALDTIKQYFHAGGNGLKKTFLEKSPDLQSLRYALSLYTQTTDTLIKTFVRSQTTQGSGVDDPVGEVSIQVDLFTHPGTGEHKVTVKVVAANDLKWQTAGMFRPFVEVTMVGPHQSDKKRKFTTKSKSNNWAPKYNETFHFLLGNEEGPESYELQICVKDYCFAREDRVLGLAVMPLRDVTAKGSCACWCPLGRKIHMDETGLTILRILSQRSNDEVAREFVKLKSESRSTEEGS

Row | Substance | thermal stability score (HeLa Kyoto [1]; [5]) | thermal stability score (HeLa Kyoto [1]; cell cycle stage: mitosis) | solubility in G1/S (log2) (HeLa Kyoto [2]) | solubility change mitosis (log2) (HeLa Kyoto [3]) | melting temperature (HeLa Kyoto [4]; cell cycle stage: G1/S) [°C] | melting temperature (HeLa Kyoto [4]; cell cycle stage: mitosis) [°C]
1 | ABCA2 | 0.174 | -0.253 | 0.0925 | -0.105 |  | 
2 | APOBEC3B | 0.584 | 1.24 | -0.745 | 0.177 |  | 
3 | CELSR1 | -1.99 | -1.59 | -0.413 | -0.0398 |  | 
4 | EML1 | 0.361 | 0.0361 | -0.0717 | -0.126 |  | 
5 | KIAA0430 | -0.446 | -0.799 | -0.0573 | 0.0372 |  | 
6 | MAARAVLDEFTAPAEKAELLEQSRGRIEGLFGVSLAVLGALGAEEPLPARIWLQLCGAQEAVHSAKEYIKGICEPELEERECYPKDMHCIFVGAESLFLKSLIQDTCADLCILDIGLLGIRGSAEAVVMARSHIQQFVKLFENKENLPSSQKESEVKREFKQFVEAHADNYTMDLLILPTSLKKELLTLTQGEENLFETGDDEVIEMRDSQQTEFTQNAATGLNISRDETVLQEEARNKAGTPVSELTKQMDTVLSSSPDVLFDPINGLTPDEEALSNERICQKRRFSDSEERHTKKQFSLENVQEGEILHDAKTLAGNVIADLSDSSADSENLSPDIKETTEEMEYNILVNFFKTMGYSQEIVEKVIKVYGPSTEPLLLLEEIEKENKRFQEDREFSAGTVYPETNKTKNKGVYSSTNELTTDSTPKKTQAHTQQNMVEKFSQLPFKVEAKPCTSNCRINTFRTVPIEQKHEVWGSNQNYICNTDPETDGLSPSVASPSPKEVNFVSRGASSHQPRVPLFPENGLHQQPEPLLPNNMKSACEKRLGCCSSPHSKPNCSTLSPPMPLPQLLPSVTDARSAGPSDHIDSSVTGVQRFRDTLKIPYKLELKNEPGRTDLKHIVIDGSNVAITHGLKKFFSCRGIAIAVEYFWKLGNRNITVFVPQWRTRRDPNVTEQHFLTQLQELGILSLTPARMVFGERIASHDDRFLLHLADKTGGIIVTNDNFREFVNESVSWREIITKRLLQYTFVGDIFMVPDDPLGRSGPRLEEFLQKEVCLRDMQPLLSALPNVGMFDPSFRVPGTQAASTSHQPPTRIQGAPSSHWLPQQPHFPLLPALPSLQQNLPMPAQRSSAETNELREALLKIFPDSEQRLKIDQILVAHPYMKDLNALSAMVLD [N4BP1] | 1.68 | 2.82 | 0.0767 | -0.0226 |  | 
7 | MAASRLELNLVRLLSRCEAMAAEKRDPDEWRLEKYVGALEDMLQALKVHASKPASEVINEYSWKVDFLKGMLQAEKLTSSSEKALANQFLAPGRVPTTARERVPATKTVHLQSRARYTSEMRSELLGTDSAEPEMDVRKRTGVAGSQPVSEKQLAAELDLVLQRHQNLQEKLAEEMLGLARSLKTNTLAAQSVIKKDNQTLSHSLKMADQNLEKLKTESERLEQHTQKSVNWLLWAMLIIVCFIFISMILFIRIMPKLK [USE1] | 0.334 | 0.48 | 0.00595 | -0.0501 |  | 
8 | MAEDWLDCPALGPGWKRREVFRKSGATCGRSDTYYQSPTGDRIRSKVELTRYLGPACDLTLFDFKQGILCYPAPKAHPVAVASKKRKKPSRPAKTRKRQVGPQSGEVRKEAPRDETKADTDTAPASFPAPGCCENCGISFSGDGTQRQRLKTLCKDCRAQRIAFNREQRMFKRVGCGECAACQVTEDCGACSTCLLQLPHDVASGLFCKCERRRCLRIVERSRGCGVCRGCQTQEDCGHCPICLRPPRPGLRRQWKCVQRRCLRGKHARRKGGCDSKMAARRRPGAQPLPPPPPSQSPEPTEPHPRALAPSPPAEFIYYCVDEDELQPYTNRRQNRKCGACAACLRRMDCGRCDFCCDKPKFGGSNQKRQKCRWRQCLQFAMKRLLPSVWSESEDGAGSPPPYRRRKRPSSARRHHLGPTLKPTLATRTAQPDHTQAPTKQEAGGGFVLPPPGTDLVFLREGASSPVQVPGPVAASTEALLQEAQCSGLSWVVALPQVKQEKADTQDEWTPGTAVLTSPVLVPGCPSKAVDPGLPSVKQEPPDPEEDKEENKDDSASKLAPEEEAGGAGTPVITEIFSLGGTRFRDTAVWLPRSKDLKKPGARKQ [MBD1] | -0.407 | -0.0664 | -0.475 | 0.37 |  | 
9 | MAKQLQARRLDGIDYNPWVEFVKLASEHDVVNLGQGFPDFPPPDFAVEAFQHAVSGDFMLNQYTKTFGYPPLTKILASFFGELLGQEIDPLRNVLVTVGGYGALFTAFQALVDEGDEVIIIEPFFDCYEPMTMMAGGRPVFVSLKPGPIQNGELGSSSNWQLDPMELAGKFTSRTKALVLNTPNNPLGKVFSREELELVASLCQQHDVVCITDEVYQWMVYDGHQHISIASLPGMWERTLTIGSAGKTFSATGWKVGWVLGPDHIMKHLRTVHQNSVFHCPTQSQAAVAESFEREQLLFRQPSSYFVQFPQAMQRCRDHMIRSLQSVGLKPIIPQGSYFLITDISDFKRKMPDLPGAVDEPYDRRFVKWMIKNKGLVAIPVSIFYSVPHQKHFDHYIRFCFVKDEATLQAMDEKLRKWKVEL [CCBL1] | 0.0443 | -0.361 | 0.0856 | -0.211 |  | 
10 | MARPGMERWRDRLALVTGASGGIGAAVARALVQQGLKVVGCARTVGNIEELAAECKSAGYPGTLIPYRCDLSNEEDILSMFSAIRSQHSGVDICINNAGLARPDTLLSGSTSGWKDMFNVNVLALSICTREAYQSMKERNVDDGHIININSMSGHRVLPLSVTHFYSATKYAVTALTEGLRQELREAQTHIRATCISPGVVETQFAFKLHDKDPEKAAATYEQMKCLKPEDVAEAVIYVLSTPAHIQIGDIQMRPTEQVT [DHRS11] | -0.426 | -1.39 | 0.514 | -0.00389 |  | 
11 | MSGFNFGGTGAPTGGFTFGTAKTATTTPATGFSFSTSGTGGFNFGAPFQPATSTPSTGLFSLATQTPATQTTGFTFGTATLASGGTGFSLGIGASKLNLSNTAATPAMANPSGFGLGSSNLTNAISSTVTSSQGTAPTGFVFGPSTTSVAPATTSGGFSFTGGSTAQPSGFNIGSAGNSAQPTAPATLPFTPATPAATTAGATQPAAPTPTATITSTGPSLFASIATAPTSSATTGLSLCTPVTTAGAPTAGTQGFSLKAPGAASGTSTTTSTAATATATTTSSSSTTGFALNLKPLAPAGIPSNTAAAVTAPPGPGAAAGAAASSAMTYAQLESLINKWSLELEDQERHFLQQATQVNAWDRTLIENGEKITSLHREVEKVKLDQKRLDQELDFILSQQKELEDLLSPLEELVKEQSGTIYLQHADEEREKTYKLAENIDAQLKRMAQDLKDIIEHLNTSGAPADTSDPLQQICKILNAHMDSLQWIDQNSALLQRKVEEVTKVCEGRRKEQERSFRITFD [NUP62] |  |  | 0.32 | 0.107 | 51.8 | 51.7
12 | MSQATKRKHVVKEVLGEHIVPSDQQQIVRVLRTPGNNLHEVETAQGQRFLVSMPSKYRKNIWIKRGDFLIVDPIEEGEKVKAEISFVLCKDHVRSLQKEGFWPEAFSEVAEKHNNRNRQTQPELPAEPQLSGEESSSEDDSDLFVNTNRRQYHESEEESEEEEAA [EIF1AD] |  |  | 0.37 | -0.0155 | 53.5 | 53.3
13 | MSSRSTKDLIKSKWGSKPSNSKSETTLEKLKGEIAHLKTSVDEITSGKGKLTDKERHRLLEKIRVLEAEKEKNAYQLTEKDKEIQRLRDQLKARYSTTTLLEQLEETTREGERREQVLKALSEEKDVLKQQLSAATSRIAELESKTNTLRLSQTVAPNCFNSSINNIHEMEIQLKDALEKNQQWLVYDQQREVYVKGLLAKIFELEKKTETAAHSLPQQTKKPESEGYLQEEKQKCYNDLLASAKKDLEVERQTITQLSFELSEFRRKYEETQKEVHNLNQLLYSQRRADVQHLEDDRHKTEKIQKLREENDIARGKLEEEKKRSEELLSQVQFLYTSLLKQQEEQTRVALLEQQMQACTLDFENEKLDRQHVQHQLHVILKELRKARNQITQLESLKQLHEFAITEPLVTFQGETENREKVAASPKSPTAALNESLVECPKCNIQYPATEHRDLLVHVEYCSK [CEP55] |  |  | 0.417 | 0.238 | 48.1 | 48.9
14 | MSTASSSSSSSSSQTPHPPSQRMRRSAAGSPPAVAAAGSGNGAGGGGGVGCAPAAGAGRLLQPIRATVPYQLLRGSQHSPTRPPVAAAAASLGSLPGPGAARGPSPSSPTPPAAAAPAEQAPRAKGRPRRSPESHRRSSSPERRSPGSPVCRADKAKSQQVRTSSTIRRTSSLDTITGPYLTGQWPRDPHVHYPSCMKDKATQTPSCWAEEGAEKRSHQRSASWGSADQLKEQIAKLRQQLQRSKQSSRHSKEKDRQSPLHGNHITISHTQATGSRSVPMPLSNISVPKSSVSRVPCNVEGISPELEKVFIKENNGKEEVSKPLDIPDGRRAPLPAHYRSSSTRSIDTQTPSVQERSSSCSSHSPCVSPFCPPESQDGSPCSTEDLLYDRDKDSGSSSPLPKYASSPKPNNSYMFKREPPEGCERVKVFEEMASRQPISAPLFSCPDKNKVNFIPTGSAFCPVKLLGPLLPASDLMLKNSPNSGQSSALATLTVEQLSSRVSFTSLSDDTSTAGSMEASVQQPSQQQQLLQELQGEDHISAQNYVII [GLCCI1] |  |  | 0.4 | -0.0403 | 53.7 | 54.4
15 | MSVFGKLFGAGGGKAGKGGPTPQEAIQRLRDTEEMLSKKQEFLEKKIEQELTAAKKHGTKNKRAALQALKRKKRYEKQLAQIDGTLSTIEFQREALENANTNTEVLKNMGYAAKAMKAAHDNMDIDKVDELMQDIADQQELAEEISTAISKPVGFGEEFDEDELMAELEELEQEELDKNLLEISGPETVPLPNVPSIALPSKPAKKKEEEDDDMKELENWAGSM [CHMP4B] |  |  | 0.507 | 0.775 | 55 | 52.5
16 | MTSPEIASLSWGQMKVKGSNTTYKDCKVWPGGSRTWDWRETGTEHSPGVQPADVKEVVEKGVQTLVIGRGMSEALKVPSSTVEYLKKHGIDVRVLQTEQAVKEYNALVAQGVRVGGVFHSTC [AAMDC] |  |  | 0.355 | 0.0391 | 53.4 | 52.5
17 | MTTAARPTFEPARGGRGKGEGDLSQLSKQYSSRDLPSHTKIKYRQTTQDAPEEVRNRDFRRELEERERAAAREKNRDRPTREHTTSSSVSKKPRLDQIPAANLDADDPLTDEEDEDFEEESDDDDTAALLAELEKIKKERAEEQARKEQEQKAEEERIRMENILSGNPLLNLTGPSQPQANFKVKRRWDDDVVFKNCAKGVDDQKKDKRFVNDTLRSEFHKKFMEKYIK [CWC15] |  |  | 0.0823 | 0.681 | 55.4 | 55.1
18 | MWPPCGTLRTLALARSRGARACSGDGGVSYTQGQSPEPRTREYFYYVDHQGQLFLDDSKMKNFITCFKDPQFLVTFFSRLRPNRSGRYEAAFPFLSPCGRERNFLRCEDRPVVFTHLLTADHGPPRLSYCGGGEALAVPFEPARLLPLAANGRLYHPAPERAGGVGLVRSALAFELSACFEYGPGAPALPSHVRWQGRRLALTMDLAPLLLAARSP [C8ORF82] |  |  | 0.265 | 0.0375 | 52.4 | 54.3
19 | MYQDYPGNFDTSSRGSSGSPAHAESYSSGGGGQQKFRVDMPGSGSAFIPTINAITTSQDLQWMVQPTVITSMSNPYPRSHPYSPLPGLASVPGHMALPRPGVIKTIGTTVGRRRRDEQLSPEEEEKRRIRRERNKLAAAKCRNRRRELTEKLQAETEELEEEKSGLQKEIAELQKEKEKLEFMLVAHGPVCKISPEERRSPPAPGLQPMRSGGGSVGAVVVKQEPLEEDSPSSSSAGLDKAQRSVIKPISIAGGFYGEEPLHTPIVVTSTPAVTPGTSNLVFTYPSVLEQESPASPSESCSKAHRRSSSSGDQSSDSLNSPTLLAL [FOSL2] |  |  | 0.191 | 0.106 | 53.9 | 55.1
20 | NBEAL2 |  |  | -0.103 | -0.0719 | 52 | 
21 | NFYA |  |  | -0.0285 | -0.0439 | 58 | 58.1
22 | RPL22L1 |  |  | -0.564 | 0.209 | 53.8 | 52
23 | SRCAP |  |  | -0.24 | 0.0318 | 48.8 | 50.3
24 | TGOLN2 |  |  | -0.315 | 0.881 | 59.5 | 53.9
25 | TOPBP1 |  |  | -0.153 | -0.0346 | 46.7 | 49.1
26 | UNC13B |  |  | -0.113 | -0.114 | 50.3 | 49.4
27 | WNK2 |  |  | 0.2 | -0.0197 |  | 52.6
28 | ZNF593 |  |  | -0.278 | 1.09 | 57.9 | 51.7
